Measurements taken from paper PMC11402997.

Details: phosphorylation at S2808

Substance	other	structure_or_conformation
RyR2 (ryanodine receptor type 2): S2808D phosphomimetic	increases	–
RyR2 (ryanodine receptor type 2): S2808D phosphomimetic (expressing cells also treated with H2O2; irreversible oxidative modifications retained)	–	changes, RMSD normalized projection = 0.11 (subprimed state)
